Test results taken from US20050064507A1, “Determining kinase specificity” (priority 2003, published 2005).

Columns and labels:
PKC-delta = molecular target: T1, PKC-delta (Homo sapiens, UniProt Q05655); assay: In vitro kinase assay: peptide phosphorylation by PKC-delta; format: biochemical; settings: for PKC delta phosphorylation: normalized to best substrate;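 for PKC delta phosphorylation: peptide concentration 10 nM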
T1 construct: purchased Calbiochem
Description: One approach to validating a substrate identification method can involve, for example, comparison of substrate sites predicted by the method with in vitro phosphorylation results obtained using the selected kinase and peptides of known sequences. Such a systematic validation has been performed for the methods described herein. For example, a panel of seventy five peptides was synthesized, the phosphorylation observed for each peptide was experimentally measured, the amount of phosphorylation was quantified, the phosphorylation results for each peptide were normalized to the phosphorylation observed with the best substrate tested and these amounts were compared with predictions made according to the invention and according to the procedures provided by others. These peptides are referred to herein as proteomic peptides because their sequences are chosen from proteins in the human proteome; unlike the test sets employed herein, these peptides include no degenerate positions
Table 2 compares the present predictions with actual measurements of phosphorylation on validating peptides. The method of synthesis of the validating peptides was as described elsewhere in the application, and each included an N-terminal linker sequence of biotinylated-Lys-dansylated-Lys-Pro-Pro-Gly (SEQ ID NO:231). The length of the remaining “core” of the validating peptides ranged from 12-21 residues with one to five S/T residues. In vitro phosphorylation of these validating peptides was measured in the manner described herein. […] In vitro phosphorylation results for the validating peptides were expressed as normalized values, namely as a percentage of phosphorylation of the best validating peptide substrate in the group.
(§1) The conditions of the kinase assay and the amount of active kinase used varied with the kinase and with the accuracy needed. For a typical experiment, 5-20 ng of kinase was used per well and each peptide pool was assayed in duplicate wells. Note that the absolute amount of kinase used was not usually a critical parameter, because the desired information related to specificity of the kinase not its absolute activity, and robustness of the assay depends on comparisons of the same amount of kinase on different peptides. The combination of kinase concentration and assay duration was modified to assure that the stoichiometry of peptide phosphorylation never exceeded 5%. The choice of kinase buffer depended on the kinase being analyzed. For studies of PKC, 100 mM HEPES, 0.05% Triton-X100, 1 mM CaCl2, 20 mM MgCl2, 0.2 mg/ml phosphatidyl serine (Avanti Polar Lipids), PMA 100 ng/ml was typically used. The lipid stock was prepared by transferring 3 mg phosphatidyl serine into iced mixture of 450 μl water plus 50 μl of 10% Triton-X100, sonicating 10 times on ice for 1 sec each.
(§2) The kinase reaction mixture was assembled by sequential addition to a tube held on ice of: 5 μl peptide (100 μM for final concentration of 10 μM), 15 μl of kinase (typically 5 ng/well, in appropriate kinase buffer), 30 μl of ATP (1 uCi/well of ^32P-gamma ATP in a stock of 167 μM cold ATP in the kinase buffer; for final concentration for 100 μM ATP). The mixture was rapidly warmed to desired reaction temperature (30° C. for PKC) and incubated for the desired duration (usually 10 minutes). The kinase assay was terminated by transfer to 4° C. water batch, and rapid addition of an equal volume (50 μl) of stop solution [0.1M ATP+0.1M EDTA in water, pH 8].
The peptides were then captured from the reaction mixture by transfer to a Reacti-Bind Streptavidin High Binding Capacity Coated Plates (HBC) (Pierce Biotechnology) as follows. The HBC plates were pre-rinsed three times with PBS/Tween PBS/Tween20 0.05% (PBS/Tween). […]

PKC = assay: In vitro phosphorylation by PKC (average of isoforms alpha, epsilon, delta, theta); format: biochemical; settings: for PKC average: average of PKC-alpha, -epsilon, -theta, normalized to best substrate; for average (phosphorylation by PKC-theta, -delta, -epsilon, -alpha): average over PKC-theta, -epsilon and -alpha at 10 and 1 uM peptide, relative to best substrate
Method: as §1, §2
The peptides were then captured from the reaction mixture by transfer to a Reacti-Bind Streptavidin High Binding Capacity Coated Plates (HBC) (Pierce Biotechnology) as follows. The HBC plates were pre-rinsed three times with PBS/Tween PBS/Tween20 0.05% (PBS/Tween). Part of all of the reaction mixture was then transferred wells of a HBC plate pre-filled with 90 μl of phosphate-buffered saline (PBS); typically each aliquots of each phosphorylation reaction were transferred to duplicate HBC plates to assure accuracy by additional replication
For kinase assays done at the standard peptide concentration of 10 μM, the peptide concentration in the reaction mixture becomes 5 μM after addition of the stop solution; consequently 10 μl of the reaction (50 pMoles of peptide) was transferred to the HBC plate. More generally, the amount of reaction mixture transferred was estimated to be about 50 pMoles of peptide. […] The HBC plates were incubated for 0.5 to 1.5 hr at room temperature for complete binding of biotinylated peptides to plate-bound streptavidin. The HBC plates were then washed extensively with PBS/Tween. Five washes were done routinely and additional wash steps were added if the wash solution removed from the plate had measurable radioactivity as detected using a Geiger counter. This step is essential to obtaining a good the signal to noise ratio because the fraction of radioactivity incorporated in the peptides was a tiny fraction of the total in the reaction mixture. The wells were air-dried. A volume of 40-50 μl of microScint-20 (Packard Instruments) was added to each well. The plates were covered with stick-on film sheet. Radioactive emissions were measured in a TopCount NXT Microplate Scintillation and Luminescence Counter (Packard Instruments). Typically samples were counted for 5 minutes (or more) to improve the signal to noise ratio when counts were low.
Many peptides that are good substrates for PKC enzymes were identified using the methods of the invention. For example, Tables 4 and 5 provide a listing of peptides identified as potentially useful kinase substrates. […]

T1 sequence (Q05655 whole entry): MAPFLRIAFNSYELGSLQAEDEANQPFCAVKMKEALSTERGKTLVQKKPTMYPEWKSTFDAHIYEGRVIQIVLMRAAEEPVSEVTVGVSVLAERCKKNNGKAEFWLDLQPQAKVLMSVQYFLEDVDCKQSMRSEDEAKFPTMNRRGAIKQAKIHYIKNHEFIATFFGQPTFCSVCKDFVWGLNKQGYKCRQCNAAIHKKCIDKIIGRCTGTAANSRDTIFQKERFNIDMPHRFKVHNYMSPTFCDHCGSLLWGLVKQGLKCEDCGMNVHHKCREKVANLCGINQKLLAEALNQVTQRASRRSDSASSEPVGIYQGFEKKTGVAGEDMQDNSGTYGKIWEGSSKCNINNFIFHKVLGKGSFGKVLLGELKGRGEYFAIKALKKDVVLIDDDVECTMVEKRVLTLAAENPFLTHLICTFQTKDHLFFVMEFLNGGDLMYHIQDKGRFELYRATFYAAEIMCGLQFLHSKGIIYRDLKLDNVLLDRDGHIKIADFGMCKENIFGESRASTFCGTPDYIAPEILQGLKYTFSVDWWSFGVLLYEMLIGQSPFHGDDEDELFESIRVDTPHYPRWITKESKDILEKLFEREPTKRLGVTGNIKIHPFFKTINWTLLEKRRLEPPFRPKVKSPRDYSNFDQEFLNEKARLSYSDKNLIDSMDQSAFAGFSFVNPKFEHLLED

Substance	PKC delta phosphorylation (PKC-delta)	PKC average (PKC)	phosphorylation by PKC-delta (PKC-delta; peptide concentration 1 uM)	phosphorylation by PKC-delta (PKC-delta; peptide concentration 10 uM)	average (phosphorylation by PKC-theta, -delta, -epsilon, -alpha) (PKC)
76 (HVRRRRGTFKRSKLRARD) [compound 76]	100%	91%			
77 (KKKKRASFKRKSSKKG) [compound 77]	76%	80%			
78 (KFARKSTRRSIRLPE) [compound 78]	52%	63%			
79 (NRKKKRTSFKRKA) [compound 79]	66%	60%			
80 (KKKKKRFSFKKSFKL) [compound 80]	24%	56%			
82 (PRLIRRGSKKRPAR) [compound 82]	40%	56%			
83 (RKIPKRPGSVHRTPSRQ) [compound 83]	38%	55%			
84 (QKKSRLRRRASQLKI) [compound 84]	34%	53%			
85 (RFARKGSLRQKNV) [compound 85]	34%	52%			
86 (RQRKRKLSFRRRTDKD) [compound 86]	42%	48%			
89 (EYLERRASRRRAV) [compound 89]	20%	41%			
90 (AQIVKRASLKRGKQ) [compound 90]	32%	40%			
92 (DGQKRKKSLRKKLD) [compound 92]	17%	38%			
93 (AARKKRISVKKKQEQ) [compound 93]	35%	37%			
94 (KLAVGRHSFSRRSGV) [compound 94]	12%	36%			
95 (KKKFRTPSFLKKSKK) [compound 95]	25%	33%			
96 (RGFLRSASLGRRASFHLE) [compound 96]	18%	33%			
99 (AGWRKKTSFRKPKED) [compound 99]	17%	27%			
100 (WKGKRRSKARKKRK) [compound 100]	22%	26%			
101 (GAPPRRSSIRNAH) [compound 101]	13%	23%			
102 (AGSFKRNSIKKIV) [compound 102]	14%	23%			
103 (LLKKRDSFRTPRDSKLE) [compound 103]	12%	22%			
104 (EKIKRSSLKKVDSLKK) [compound 104]	10%	22%			
105 (ALRRPSLRREADD) [compound 105]	9%	21%			

Substance	PKC delta phosphorylation (PKC-delta)	PKC average (PKC)	phosphorylation by PKC-delta (PKC-delta; peptide concentration 1 uM)	phosphorylation by PKC-delta (PKC-delta; peptide concentration 10 uM)	average (phosphorylation by PKC-theta, -delta, -epsilon, -alpha) (PKC)
106 (EILSRRPSYRKILND) [compound 106]	9%	21%			
107 (QKRHARVTVKYDRRE) [compound 107]	10%	19%			
108 (KATTKKRTLRKNDRK) [compound 108]	6%	16%			
109 (KEVVRTDSLKGRRGR) [compound 109]	7%	16%			
110 (EGGDRRASGRRK) [compound 110]	5%	15%			
111 (KKKRFSFKKSFKLSGFSFKK) [compound 111]	16%	14%			
112 (KRPGKKGSNKRPGKR) [compound 112]	8%	12%			
113 (GENVLKKSMKSRVKG) [compound 113]	4%	10%			
114 (KKKKRASFKRKSSKKG) [compound 114]			80	100	95
115 (NRKKKRTSFKRKA) [compound 115]			94	99	80
116 (EEGTFRSSIRRLSTRRR) [compound 116]			75	41	71
117 (NRKKKRTSFKRKA) [compound 117]			100	79	70
118 (RPQNTLKASKKKKRASFKRK) [compound 118]			73	60	64
119 (KKRFSFKKSFKLSGFSFKKN) [compound 119]			42	16	61
120 (AKRRRLSSLRASTSK) [compound 120]			64	32	52
121 (LRRRSLRRSNSISKSPGP) [compound 121]			80	53	50
122 (RAITSTLASSFKRRR) [compound 122]			55	24	49
123 (KKRFSFKKSFKLSGFSFKKN) [compound 123]			45	22	49
124 (PRLIRRGSKKRPAR) [compound 124]			69	43	49
125 (PLKEKKRERKTSSKSSVRKR) [compound 125]			46	36	48
126 (KAIKAIEGGQKFARKSTRRS) [compound 126]			47	43	46
127 (SQVQKQRSAGSFKRNSIKKI) [compound 127]			52	33	43
128 (QQVDRERPHVRRRRGTFKRS) [compound 128]			46	57	42
